Assay results: patent publication US20170037084A1 (UNIVERSITY OF ROCHESTER, published 2017)
Bridges are numbered along the chain shown (N, C = ends). Where no end group is shown, it is not given here. [ ]: non-standard residue; d: D form. The star is where a group is joined. SP8 = 3-amino-N-(3-(aminooxy)propyl)-4-(mercaptomethyl)benzamide, macrocycle-forming linker reagent; mAcF = meta-acetyl-L-phenylalanine, its ketone forms an oxime with the linker; pAcF = para-acetyl-L-phenylalanine, its ketone forms an oxime with the linker; FITC = O=C1OC2(c3ccc(O)cc3Oc3cc(O)ccc32)c2ccc(NC(=S)*)cc21; Trp(6-Cl) = N[C@@H](Cc1c[nH]c2cc(Cl)ccc12)C(=O)O; Phe(4-Ac) = CC(=O)c1ccc(C[C@H](N)C(=O)O)cc1; SP4 = not defined here; SP6 = not defined here; SP9 = not defined here; βAla = NCCC(=O)O

B1: P11 (peptide)
peptide: Ac-[Phe(4-Ac)]SFAEY[Trp(6-Cl)]ALLA-NH2
SMILES: CC(=O)N[C@@H](Cc1ccc(C(C)=O)cc1)C(=O)N[C@@H](CO)C(=O)N[C@@H](Cc1ccccc1)C(=O)N[C@@H](C)C(=O)N[C@@H](CCC(=O)O)C(=O)N[C@@H](Cc1ccc(O)cc1)C(=O)N[C@@H](Cc1c[nH]c2cc(Cl)ccc12)C(=O)N[C@@H](C)C(=O)N[C@@H](CC(C)C)C(=O)N[C@@H](CC(C)C)C(=O)N[C@@H](C)C(N)=O
notes: also called Ac-(pAcF)SFAEY(6ClW)ALLA-NH2
B2: P16 (peptide)
peptide: Ac-[mAcF]SFAEY[Trp(6-Cl)]ALLA
modifications: linker 1-C via SP8; also: linker thiol capped with iodoacetamide
notes: also called Ac-(mAcF)SFAEY(6ClW)ALLA, SP8-linked macrocycle
B3: P17 (peptide)
peptide: Ac-[pAcF]SFAEY[Trp(6-Cl)]ALLA
modifications: linker 1-C via SP9; reading uncertain; also: linker thiol capped with iodoacetamide
notes: also called Ac-(pAcF)SFAEY(6ClW)ALLA, SP9-linked macrocycle
B4: P18 (peptide)
peptide: Ac-[mAcF]SFAEY[Trp(6-Cl)]ALLA
modifications: linker 1-C via SP9; reading uncertain; also: linker thiol capped with iodoacetamide
notes: also called Ac-(mAcF)SFAEY(6ClW)ALLA, SP9-linked macrocycle
B5: P19 (peptide)
peptide: Ac-[pAcF]SFAEY[Trp(6-Cl)]ALLA
modifications: linker 1-C via SP4; reading uncertain; also: linker thiol capped with iodoacetamide
notes: also called Ac-(pAcF)SFAEY(6ClW)ALLA, SP4-linked macrocycle
B6: P2 (peptide)
peptide: Ac-GTSFAYYWNLLA-NH2
notes: also called acyclic counterpart of P3 and P4
B7: p53 macrocyclic peptidomimetic P3 (i/i+6(CO)-linked, SP6-based linker) (peptide)
peptide: GTSFA[Phe(4-Ac)]YWNLLA
modifications: linker 6-C via SP6; reading uncertain; also: linker thiol capped with iodoacetamide
B8: p53 macrocyclic peptidomimetic P8 (i/i+10(CO)-linked, SP8-based linker) (peptide)
peptide: G[Phe(4-Ac)]SFAEYWNLLA
modifications: bridge 2-C; not fully specified (bridges); also: linker thiol capped with iodoacetamide
B9: p53 macrocyclic peptidomimetic P7 (i/i+10(CO)-linked, SP6-based linker) (peptide)
peptide: G[Phe(4-Ac)]SFAEYWNLLA
modifications: linker 2-C via SP6; reading uncertain; also: linker thiol capped with iodoacetamide
B10: p53 macrocyclic peptidomimetic P5 (i/i+6(CO)-linked, distance-mismatched SP4-based linker; negative control) (peptide)
peptide: GTSFA[Phe(4-Ac)]YWNLLA
modifications: linker 6-C via SP4; reading uncertain; also: linker thiol capped with iodoacetamide
notes: also called SP4-based macrocycle P5

Each binder was assayed against T1, HDM2-YFP fusion protein (p53-binding domain of human HDM2, residues 1-109, C-terminally fused to Yellow … (human, UniProt Q00987 1-109)) (assay: SPR inhibition assay: inhibitor added to soluble HDM2-YFP, binding to immobilized biotin-SGSG-p53(15-29) is inhibited).
T1 construct: range 1-109; Expressed in E. coli BL21(DE3) from pET22-HDM2-YFP-His; also called HMD2; HDM2-YFP-His; not shown: Yellow Fluorescent Protein (YFP); C-terminal His tag
T1 sequence (Q00987 1-109): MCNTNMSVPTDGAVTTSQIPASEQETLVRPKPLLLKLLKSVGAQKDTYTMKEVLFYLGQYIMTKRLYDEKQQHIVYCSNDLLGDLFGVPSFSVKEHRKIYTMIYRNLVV
Protocol: (§1) The surface plasmon resonance (SPR)-based inhibition assays were performed using a BIAcore T100 instrument. […] Running buffer and sample buffer contained 10 mM HEPES buffer, pH 7.4 with 150 mM NaCl, 3 mM EDTA and 0.05% v/v Tween 20. […] With increasing concentrations of the inhibitor, binding of HDM2 (or HDMX) to the surface is inhibited, leading to a decrease in biosensor response. HDM2/HDMX plus inhibitor samples were injected at a rate of 30 uL/min over a 2 minute interval by a 2 minute dissociation period and a 10-second regeneration step using 10 mM HCl. Specific binding curves for each concentration of inhibitor were obtained by subtracting the response in the reference surface from the response in the p53-coated surface.

Binder | IC50 [nM]
B1 | 30
Ac-[pAcF]SFAEYWNLLA (linker 1-C via SP8; also: linker thiol capped with iodoacetamide) [P13] | 135
Ac-[mAcF]SFAEYWNLLA (linker 1-C via SP8; also: linker thiol capped with iodoacetamide) [P14] | 255
Ac-G[pAcF]SFAEYWNLLA (linker 2-C via SP8; also: linker thiol capped with iodoacetamide) [P12] | 145
B2 | 105
B3 | 305
B4 | 400
B5 | > 50000
B6 | 1510
B7 | 870
GTSFA[pAcF]YWNLLA (linker 6-C via SP8; also: linker thiol capped with iodoacetamide) [p53 macrocyclic peptidomimetic P4 (i/i+6(CO)-linked, SP8-based linker)] | 1500

The binders below were run against T2, HDMX-YFP fusion protein (p53-binding domain of human HDMX, residues 1-109, C-terminally fused to Yellow … (human, UniProt O15151 1-109)) (assay: SPR inhibition assay, competitor immobilised biotin-p53(15-29)).
T2 construct: range 1-109; Expressed in E. coli BL21(DE3) from pET22-HDMX-YFP-His; also called HMDX; HDM4; not shown: Yellow Fluorescent Protein (YFP); C-terminal His tag
T2 sequence (looked up): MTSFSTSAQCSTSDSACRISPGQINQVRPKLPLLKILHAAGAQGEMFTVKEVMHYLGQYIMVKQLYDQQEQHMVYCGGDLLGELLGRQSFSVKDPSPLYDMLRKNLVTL
Protocol: as §1

Binder | IC50 [nM]
B8 | 340
B9 | 910

Each binder was assayed against T2, HDMX-YFP fusion protein (p53-binding …) (assay: SPR inhibition assay: inhibitor added to soluble HDMX-YFP, binding to immobilized biotin-SGSG-p53(15-29) is inhibited).
Protocol: as §1

Binder | IC50 [µM]
B6 | 7.5
B7 | 4.1
GTSFA[pAcF]YWNLLA (linker 6-C via SP8; also: linker thiol capped with iodoacetamide) [p53 macrocyclic peptidomimetic P4 (i/i+6(CO)-linked, SP8-based linker)] | 3.5

Each binder was assayed against T1, HDM2-YFP fusion protein (p53-binding …) (assay: fluorescence polarization, fluorescein-labeled compound (25-200 nM) titrated with HDM2 (10 nM to 2 µM)).
Protocol: HDM2 binding studies. […] In the assay, 25-200 nM of the fluorescein-labeled compound and HDM2 concentrations varying from 10 nM to 2 μM were tested. The experiments were performed at room temperature in black 96-well plates with a final volume of 75 μL in PBS buffer with addition of 1% DMSO. Fluorescence was detected at excitation/emission of 470/520 nm and change in fluorescence polarization was plotted against the varying protein concentration.

Binder | Kd [nM]
{FITC-βAla}-G[pAcF]SFAEYWNLLA (linker 2-C via SP8; also: linker thiol capped with iodoacetamide, also called fluorescein-conjugated P8) [FITC-β-Ala-P8 (fluorescein-labeled derivative of macrocycle P8)] | 63

These binders were tested against T2, HDMX-YFP fusion protein (p53-binding …) (assay: SPR inhibition assay, competitor immobilised biotin-p53(15-29); the sentence does not say which homolog).
Protocol: as §1

Binder | IC50 [µM]
B10 | ~10
